Assay results taken from publication PMC4413027 (Nature Communications, 2015).

Molecular target: T1, Full-length human CDK1 from a 3C-protease cleavable GST fusion (GPLGS left at the N terminus), … (human, UniProt P06493 1-297)
T1 construct: short cloning artefact left at the N terminus after 3C cleavage of the GST fusion; CDK1, human, full length; also called GST-CDK1 (before cleavage); unphosphorylated CDK1; source: insect cells (Sf9, baculovirus pVL1393GST-CDK1), purified (glutathione-sepharose 4B, GST-3C cleavage, SEC); for ITC treated with λ-phosphatase and purified again by SEC; not shown: GST, N-terminal, cleaved
Experiment: ITC; higher salt, higher pH: 50 mM HEPES pH 8.0, 500 mM NaCl, 0.01% MTG, 30 °C; cyclin in the cell, unphosphorylated CDK from the syringe; one-set-of-sites model
Conditions: both partners purified

T1 sequence (P06493 other isoform, or with tags, fused parts or gaps): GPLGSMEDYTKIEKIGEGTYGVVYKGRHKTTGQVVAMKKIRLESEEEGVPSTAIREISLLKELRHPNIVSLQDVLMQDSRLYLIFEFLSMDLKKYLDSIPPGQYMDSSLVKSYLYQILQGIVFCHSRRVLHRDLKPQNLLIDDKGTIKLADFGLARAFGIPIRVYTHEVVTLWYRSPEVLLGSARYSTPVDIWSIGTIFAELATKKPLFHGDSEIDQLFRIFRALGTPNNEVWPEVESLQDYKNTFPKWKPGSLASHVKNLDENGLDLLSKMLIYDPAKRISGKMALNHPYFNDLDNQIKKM

- Kd: 28 nM
B1: Human cyclin B1, residues 165–433 carrying the C167S/C238S/C350S mutations (domain or fragment)
chain: GSHMNLSSEYVKDIYAYLRQLEEEQAVRPKYLLGREVTGNMRAILIDWLVQVQMKFRLLQETMYMTVSIIDRFMQNNSVPKKMLQLVGVTAMFIASKYEEMYPPEIGDFAFVTDNTYTKHQIRQMEMKILRALNFGLGRPLPLHFLRRASKIGEVDVEQHTLAKYLMELTMLDYDMVHFPPSQIAAGAFSLALKILDNGEWTPTLQHYLSYTEESLLPVMQHLAKNVVMVNQGLTKHMTVKNKYATSKHAKISTLPQLNSALVQDLAKAVAKV
notes: artefact left N-terminal to N165 after thrombin cleavage of the hexa-histidine tag; cyclin B1, human, residues 165–433 (begins at N165); not shown: His6, N-terminal, cleaved
